# Positions count from the first letter of the chain named. “Also recorded” adds a separate entry of the source.
# B1: sDSS1-M1: sDSS1 mutant protein 1, SEQ ID NO: 15 (protein)
# chain: MSEKKQPVDLGLLEEDDEFEEFPAEDWAGLDEDEDAHVWEDNWDDDNVEDDFSNQLRATVLLMILVAETPYGAYVLHQKGRMASAFLAA
# B2: sDSS1-M2: sDSS1 mutant protein 2, SEQ ID NO: 16 (protein)
# chain: B1 chain with A67V, A73V, A83V, A88V, A89V
# How the values were obtained:
# ApoE−/− mice = assay: Atherosclerotic plaques of the aorta (en face oil red O staining) in high-fat diet ApoE−/− mice; assay type: in vivo; settings: ATV 40 mg/kg orally once a day, 13 weeks, high-fat diet
# Description: FIGS. 15-16. The sDSS1 protein inhibits the formation of atherosclerotic plaques in ApoE−/− mice. […] At the end of the injection, the aorta was dissected for oil red O staining, and the area of plaques was calculated.
# Experimental animals: ApoE−/− mice, 8-week-old, male, were purchased from Nanjing Biomedical Research Institute of Nanjing University. The experimental animals were housed in an animal room for one week before the experiment.
# Experimental method: ApoE−/− mice were fed with high-fat diet containing 0.25% cholesterol starting from the age of 9 weeks. From the 10th week of high-fat diet feeding, the mice were randomly divided into three groups according to the total cholesterol level, with 10 mice in each group. […] At the 22nd week of high-fat diet feeding, that is, the 13th week of administration, the animals were executed and dissected, and the whole aorta was separated. The separated aorta was stained with en face oil red O to evaluate the formation of atherosclerotic plaques.
# oxLDL = molecular target: T1, oxLDL (Homo sapiens, UniProt P04114); assay: Co-incubation with oxLDL, SDS-PAGE separation, Coomassie brilliant blue staining; assay type: binding; settings: phosphate buffer pH 7.2
# T1 construct: purchased Solarbio H7980
# T1 sequence (P04114 28-4563): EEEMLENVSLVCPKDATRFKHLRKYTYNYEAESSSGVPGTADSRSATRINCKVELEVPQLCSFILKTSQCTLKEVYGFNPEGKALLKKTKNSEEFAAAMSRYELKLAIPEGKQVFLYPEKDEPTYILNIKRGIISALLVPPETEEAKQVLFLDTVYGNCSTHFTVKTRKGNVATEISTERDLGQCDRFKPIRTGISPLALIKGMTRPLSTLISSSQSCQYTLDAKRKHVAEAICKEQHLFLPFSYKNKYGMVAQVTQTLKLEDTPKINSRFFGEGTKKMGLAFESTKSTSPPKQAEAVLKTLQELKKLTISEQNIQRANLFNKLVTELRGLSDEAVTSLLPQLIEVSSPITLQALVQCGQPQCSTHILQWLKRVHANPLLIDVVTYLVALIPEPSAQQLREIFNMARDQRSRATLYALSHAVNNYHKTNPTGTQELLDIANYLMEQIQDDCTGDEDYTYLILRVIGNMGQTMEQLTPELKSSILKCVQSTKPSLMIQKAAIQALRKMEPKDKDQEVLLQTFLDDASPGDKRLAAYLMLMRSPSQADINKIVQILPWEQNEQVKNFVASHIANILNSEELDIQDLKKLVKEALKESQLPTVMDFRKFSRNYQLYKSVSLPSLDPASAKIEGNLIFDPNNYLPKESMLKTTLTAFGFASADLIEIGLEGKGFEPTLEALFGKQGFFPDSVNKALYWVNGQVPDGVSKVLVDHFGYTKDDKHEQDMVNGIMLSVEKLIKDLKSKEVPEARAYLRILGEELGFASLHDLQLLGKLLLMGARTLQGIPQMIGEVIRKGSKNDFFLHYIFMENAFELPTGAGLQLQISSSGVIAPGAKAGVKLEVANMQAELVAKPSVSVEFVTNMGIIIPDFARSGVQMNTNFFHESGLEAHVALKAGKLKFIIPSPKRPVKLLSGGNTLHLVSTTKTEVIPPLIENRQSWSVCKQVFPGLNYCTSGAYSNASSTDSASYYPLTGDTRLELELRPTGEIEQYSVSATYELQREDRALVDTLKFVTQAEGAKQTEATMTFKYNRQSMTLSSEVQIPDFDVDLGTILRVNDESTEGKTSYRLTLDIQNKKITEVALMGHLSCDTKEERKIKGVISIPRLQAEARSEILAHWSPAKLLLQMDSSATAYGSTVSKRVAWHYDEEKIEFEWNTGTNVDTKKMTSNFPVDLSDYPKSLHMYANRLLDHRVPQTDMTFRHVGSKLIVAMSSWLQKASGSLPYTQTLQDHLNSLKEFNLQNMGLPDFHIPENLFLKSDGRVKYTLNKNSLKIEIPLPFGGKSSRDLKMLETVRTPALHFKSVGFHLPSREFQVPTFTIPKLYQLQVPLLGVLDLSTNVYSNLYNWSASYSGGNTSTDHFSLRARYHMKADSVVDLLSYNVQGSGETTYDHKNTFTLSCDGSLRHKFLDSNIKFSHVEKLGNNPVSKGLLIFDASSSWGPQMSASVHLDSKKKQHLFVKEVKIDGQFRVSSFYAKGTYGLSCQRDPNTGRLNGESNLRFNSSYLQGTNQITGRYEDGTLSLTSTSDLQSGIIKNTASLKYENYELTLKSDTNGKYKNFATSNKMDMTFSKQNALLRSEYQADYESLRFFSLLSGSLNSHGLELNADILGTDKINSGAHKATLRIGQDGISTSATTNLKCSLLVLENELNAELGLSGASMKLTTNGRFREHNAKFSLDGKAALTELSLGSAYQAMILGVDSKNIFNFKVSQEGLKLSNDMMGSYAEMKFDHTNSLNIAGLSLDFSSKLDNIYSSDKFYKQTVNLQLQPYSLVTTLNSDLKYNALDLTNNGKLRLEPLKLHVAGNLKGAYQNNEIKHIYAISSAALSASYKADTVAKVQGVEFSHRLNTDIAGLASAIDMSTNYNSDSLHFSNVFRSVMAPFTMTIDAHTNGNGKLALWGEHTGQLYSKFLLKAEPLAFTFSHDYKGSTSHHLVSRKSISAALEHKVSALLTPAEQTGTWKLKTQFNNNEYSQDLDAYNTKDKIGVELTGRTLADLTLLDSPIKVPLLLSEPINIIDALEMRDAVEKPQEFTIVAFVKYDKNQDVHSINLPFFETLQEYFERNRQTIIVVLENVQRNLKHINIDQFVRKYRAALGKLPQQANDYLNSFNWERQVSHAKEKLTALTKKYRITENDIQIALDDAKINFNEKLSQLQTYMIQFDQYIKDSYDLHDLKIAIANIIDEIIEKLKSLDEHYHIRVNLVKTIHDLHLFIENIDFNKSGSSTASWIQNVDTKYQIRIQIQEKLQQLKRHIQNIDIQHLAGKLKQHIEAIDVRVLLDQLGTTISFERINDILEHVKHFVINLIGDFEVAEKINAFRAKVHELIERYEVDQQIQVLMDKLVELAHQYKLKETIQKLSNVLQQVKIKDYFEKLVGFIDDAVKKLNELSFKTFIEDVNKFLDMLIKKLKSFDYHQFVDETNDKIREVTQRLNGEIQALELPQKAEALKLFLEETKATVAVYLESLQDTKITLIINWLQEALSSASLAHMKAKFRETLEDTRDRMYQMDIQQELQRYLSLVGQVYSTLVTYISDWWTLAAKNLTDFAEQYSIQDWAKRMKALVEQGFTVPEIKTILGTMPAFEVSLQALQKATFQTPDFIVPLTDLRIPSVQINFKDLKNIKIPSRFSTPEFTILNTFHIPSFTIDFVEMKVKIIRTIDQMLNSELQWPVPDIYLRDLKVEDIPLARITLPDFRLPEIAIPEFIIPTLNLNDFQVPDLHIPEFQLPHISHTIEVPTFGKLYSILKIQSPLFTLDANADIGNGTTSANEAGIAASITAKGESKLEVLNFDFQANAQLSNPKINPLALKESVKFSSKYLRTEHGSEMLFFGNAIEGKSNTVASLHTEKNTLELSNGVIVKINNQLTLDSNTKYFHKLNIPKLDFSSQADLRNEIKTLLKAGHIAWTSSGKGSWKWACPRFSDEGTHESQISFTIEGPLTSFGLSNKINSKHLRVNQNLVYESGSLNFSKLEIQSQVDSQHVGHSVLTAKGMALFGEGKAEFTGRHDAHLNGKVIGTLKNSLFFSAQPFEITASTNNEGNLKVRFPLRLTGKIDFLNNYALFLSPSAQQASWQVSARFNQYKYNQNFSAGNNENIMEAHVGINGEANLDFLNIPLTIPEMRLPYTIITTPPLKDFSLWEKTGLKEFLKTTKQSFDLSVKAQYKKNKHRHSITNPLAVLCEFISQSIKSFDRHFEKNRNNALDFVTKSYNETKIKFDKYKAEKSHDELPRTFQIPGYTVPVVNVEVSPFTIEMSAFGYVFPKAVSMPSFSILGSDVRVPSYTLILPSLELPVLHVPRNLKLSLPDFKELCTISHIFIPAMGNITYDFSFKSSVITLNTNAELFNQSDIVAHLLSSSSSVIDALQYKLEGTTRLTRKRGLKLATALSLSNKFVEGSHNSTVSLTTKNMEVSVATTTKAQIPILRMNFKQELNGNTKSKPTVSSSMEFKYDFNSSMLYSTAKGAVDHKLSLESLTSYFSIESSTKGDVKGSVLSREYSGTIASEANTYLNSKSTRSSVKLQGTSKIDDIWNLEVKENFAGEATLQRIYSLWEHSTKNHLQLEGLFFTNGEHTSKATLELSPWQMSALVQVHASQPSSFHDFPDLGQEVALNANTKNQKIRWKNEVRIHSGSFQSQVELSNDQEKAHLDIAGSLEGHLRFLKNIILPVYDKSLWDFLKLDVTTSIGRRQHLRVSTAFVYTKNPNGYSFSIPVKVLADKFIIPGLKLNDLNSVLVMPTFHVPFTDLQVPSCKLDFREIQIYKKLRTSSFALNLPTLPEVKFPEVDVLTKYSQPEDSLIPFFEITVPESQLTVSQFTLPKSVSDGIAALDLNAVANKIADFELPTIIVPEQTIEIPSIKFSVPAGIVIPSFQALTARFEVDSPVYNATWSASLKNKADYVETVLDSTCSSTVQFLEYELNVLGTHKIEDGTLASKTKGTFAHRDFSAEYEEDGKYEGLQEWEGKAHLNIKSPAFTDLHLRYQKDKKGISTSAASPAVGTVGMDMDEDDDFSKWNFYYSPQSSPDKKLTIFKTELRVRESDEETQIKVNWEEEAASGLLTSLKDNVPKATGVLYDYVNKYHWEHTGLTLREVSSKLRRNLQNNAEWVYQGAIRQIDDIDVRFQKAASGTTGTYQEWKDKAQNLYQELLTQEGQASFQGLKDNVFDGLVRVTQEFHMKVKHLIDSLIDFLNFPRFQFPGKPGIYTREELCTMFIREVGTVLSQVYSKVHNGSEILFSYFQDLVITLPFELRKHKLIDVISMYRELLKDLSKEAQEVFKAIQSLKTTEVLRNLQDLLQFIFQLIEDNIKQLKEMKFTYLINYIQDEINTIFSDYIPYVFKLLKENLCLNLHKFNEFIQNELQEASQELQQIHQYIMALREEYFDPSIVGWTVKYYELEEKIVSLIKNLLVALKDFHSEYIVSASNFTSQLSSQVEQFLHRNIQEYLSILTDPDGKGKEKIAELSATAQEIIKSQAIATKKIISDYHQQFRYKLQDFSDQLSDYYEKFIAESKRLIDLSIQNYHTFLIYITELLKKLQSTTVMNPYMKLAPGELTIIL
# Description: Experimental materials: sDSS1 protein, sDSS1 mutant protein 1 (sDSS1-M1, SEQ ID NO: 15), sDSS1 mutant protein 2 (sDSS1-M2, SEQ ID NO: 16), oxidized low density lipoprotein (oxLDL) (Solarbio, Article No.: H7980); low density lipoprotein (LDL) (Solarbio, Article No.: H7960).
# Experimental method: 2 μg of oxLDL or LDL was mixed with 6 μg of sDSS1 protein or 10 μg of sDSS1 protein in a 1.5 ml EP tube in the presence of 20 mM sodium acetate/acetic acid buffer (pH 4.5) or 20 mM phosphate buffer (pH 7.2) respectively, and incubated at 37° C. for 12 h. A loading buffer was added in the incubated product and evenly mixed, and the obtained mixture was denatured at 100° C. for 10 min to prepare a loading sample. The resulting sample was subjected to electrophoretic separation via polyacrylamide gel electrophoresis (SDS-PAGE). After separation, the SDS-PAGE gel was stained with Coomassie brilliant blue to display protein strips. The sDSS1-M1 or sDSS1-M2 protein was respectively mixed and incubated with oxLDL, and treated in the same way. 15 μL of the sample was used for SDS-PAGE electrophoresis separation.
Molecule,Area of atherosclerotic plaques (en face oil red O) vs model group (ApoE−/− mice),Interaction with oxLDL (complex on SDS-PAGE gel) (oxLDL)
"CC(C)c1c(C(=O)Nc2ccccc2)c(-c2ccccc2)c(-c2ccc(F)cc2)n1CC[C@@H](O)C[C@@H](O)CC(=O)O [ATV, Atorvastatin, reference compound]",significantly reduced,–
B1,–,can also interact with oxLDL to form complexes; also recorded: interacted with the oxLDL protein
B2,–,can also interact with oxLDL to form complexes; also recorded: interacts with the oxLDL protein
